Laboratory results published in patent publication US20240294646A1.

What was measured:
[1] = target: Soluble FcγRIIb extracellular domain with C-terminal 10xHis tag (UniProt P31994); experiment: SPR; IIb/IIaR selectivity against control v27294
[2] = target: Soluble FcγRIIb extracellular domain with C-terminal 10xHis tag (UniProt P31994); experiment: SPR; FcγRIIb affinity fold against control v27294
[3] = target: Soluble FcγRIIb extracellular domain with C-terminal 10xHis tag (UniProt P31994); experiment: SPR; IIb-Fold / IIaR-Fold (FcγRIIb over FcγRIIaR)
[4] = target: Soluble FcγRIIaR extracellular domain with C-terminal 10xHis tag (UniProt P12318); experiment: SPR, antibody captured on HER2, receptor as analyte; affinity fold over wild-type v16463
[5] = target: Soluble FcγRIIb extracellular domain with C-terminal 10xHis tag (UniProt P31994); experiment: as above
FcγRIIb [6] = target: FcγRIIb (UniProt P31994); experiment: SPR (Protocol 2); ratio of the fold for FcγRIIb to the fold for FcγRIIaR
FcγRIIaR = FcγRIIaR (UniProt P12318); experiment: SPR (Protocol 2), antibody captured on immobilised HER2, receptor as analyte
FcγRIIb [7] = target: FcγRIIb (UniProt P31994); experiment: as above

Chain of Soluble FcγRIIaR extracellular domain with C-terminal 10xHis tag (P12318 other isoform, or with tags, fused parts or gaps): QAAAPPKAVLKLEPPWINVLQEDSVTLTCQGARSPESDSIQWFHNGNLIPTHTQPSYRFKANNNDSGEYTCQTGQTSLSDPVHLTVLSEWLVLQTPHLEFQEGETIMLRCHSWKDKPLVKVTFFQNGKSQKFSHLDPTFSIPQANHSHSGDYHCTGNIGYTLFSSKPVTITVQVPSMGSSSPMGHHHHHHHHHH
Chain of FcγRIIb (P31994 43-217): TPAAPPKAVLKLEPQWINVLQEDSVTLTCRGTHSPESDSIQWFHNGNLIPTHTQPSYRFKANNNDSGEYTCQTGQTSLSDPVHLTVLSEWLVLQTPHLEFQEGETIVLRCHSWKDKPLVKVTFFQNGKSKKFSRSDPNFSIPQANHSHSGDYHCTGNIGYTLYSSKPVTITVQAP
Chain of FcγRIIaR (P12318 34-217): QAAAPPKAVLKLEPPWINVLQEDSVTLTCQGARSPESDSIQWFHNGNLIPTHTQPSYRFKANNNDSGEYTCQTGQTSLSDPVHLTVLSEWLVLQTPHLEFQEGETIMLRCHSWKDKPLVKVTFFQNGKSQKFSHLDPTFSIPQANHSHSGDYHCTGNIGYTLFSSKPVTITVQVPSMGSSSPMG
Chain of Soluble FcγRIIb extracellular domain with C-terminal 10xHis tag (P31994 other isoform, or with tags, fused parts or gaps): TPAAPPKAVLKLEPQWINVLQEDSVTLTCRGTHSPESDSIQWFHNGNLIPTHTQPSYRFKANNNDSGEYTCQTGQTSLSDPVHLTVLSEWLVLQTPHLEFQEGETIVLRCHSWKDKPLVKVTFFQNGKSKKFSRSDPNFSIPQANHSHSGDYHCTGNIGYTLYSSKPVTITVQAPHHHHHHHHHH

| Substance | IIb Selectivity Improvement wrt Control [1] [fold] | IIb-Fold wrt Control [2] [fold] | IIb Selectivity [3] [fold] | IIaR-fold [4] [fold] | IIb-Fold [5] [fold] | IIb/IIaR Selectivity (IIb-Fold/IIaR-Fold) (FcγRIIb [6]) | IIaR-Fold (fold change in affinity over wild-type) (fold over wild-type) (FcγRIIaR) | IIb-Fold (fold change in affinity over wild-type) (fold over wild-type) (FcγRIIb [7]) |
| --- | --- | --- | --- | --- | --- | --- | --- | --- |
| Variant v26740, A_P271D_strat2, one-armed trastuzumab antibody | 1.1 | 0.5 | 14.9 | 3.4 | 50.5 |  |  |  |
| Variant v26760, A_E272H_strat2, one-armed trastuzumab antibody | 1.1 | 0.8 | 15.3 | 4.9 | 74.1 |  |  |  |
| Variant 19511 (chain A: G236N_G237F / chain B: S239D_H268D), one-armed trastuzumab antibody, Scaffold 2 |  |  |  |  |  | 1.2 | 5.7 | 7.1 |
| Variant 19519 (chain A: G236E / chain B: S239D_H268D), one-armed trastuzumab antibody, Scaffold 2 |  |  |  |  |  | 0.3 | 30.9 | 10.3 |
| Variant v26731, A_P271L_strat2, one-armed trastuzumab antibody | 1.1 | 0.7 | 14.7 | 4.5 | 66.6 |  |  |  |
| Variant v26728, A_P271G_strat2, one-armed trastuzumab antibody |  | 0.7 | 13.5 | 4.8 | 65.4 |  |  |  |
| Variant v26732, A_P271I_strat2, one-armed trastuzumab antibody |  | 0.6 | 12.9 | 4.4 | 56.9 |  |  |  |
| Variant 19699 (chain A: G236D_G237F / chain B: G236D_G237F), one-armed trastuzumab antibody, Scaffold 2 |  |  |  |  |  | 7 | 0.3 | 2.1 |
| Variant v26756, A_E272N_strat2, one-armed trastuzumab antibody | 1.2 | 0.6 | 15.8 | 3.6 | 57.6 |  |  |  |
| Variant v26718, A_D270Y_strat2, one-armed trastuzumab antibody | 0.9 | 0.6 | 12.1 | 4.5 | 54.6 |  |  |  |
| Variant v26746, A_E272A_strat2, one-armed trastuzumab antibody | 1.2 | 0.8 | 15.9 | 4.5 | 70.8 |  |  |  |
| Variant v26739, A_P271N_strat2, one-armed trastuzumab antibody | 1.1 | 0.5 | 14.9 | 3.4 | 50.9 |  |  |  |
| Variant v26744, A_P271H_strat2, one-armed trastuzumab antibody | 1.1 | 0.6 | 15.1 | 3.9 | 59.3 |  |  |  |
| Variant v26754, A_E272S_strat2, one-armed trastuzumab antibody | 1.1 | 0.7 | 14.7 | 4.1 | 61 |  |  |  |
| Variant v26717, A_D270W_strat2, one-armed trastuzumab antibody | 1.1 | 0.6 | 14.5 | 3.7 | 53.5 |  |  |  |
| Variant v26738, A_P271Q_strat2, one-armed trastuzumab antibody | 1.1 | 0.6 | 14.1 | 4 | 56.1 |  |  |  |
| Variant v26750, A_E272F_strat2, one-armed trastuzumab antibody | 1 | 0.7 | 13.5 | 4.5 | 61.2 |  |  |  |
| Variant v26749, A_E272I_strat2, one-armed trastuzumab antibody | 1 | 0.9 | 13.7 | 6.1 | 83.8 |  |  |  |
| Variant v26742, A_P271R_strat2, one-armed trastuzumab antibody | 0.8 | 0.5 | 10.7 | 4.4 | 47.1 |  |  |  |
| Variant v26716, A_D270F_strat2, one-armed trastuzumab antibody | 1 | 0.9 | 13.5 | 6.4 | 86.7 |  |  |  |
| Variant v26745, A_E272G_strat2, one-armed trastuzumab antibody | 0.9 | 0.6 | 11.6 | 4.5 | 51.6 |  |  |  |
| Variant v26712, A_D270A_strat2, one-armed trastuzumab antibody | 1 | 0.5 | 13 | 3.8 | 49.9 |  |  |  |
| Variant v26726, A_D270H_strat2, one-armed trastuzumab antibody | 1.1 | 0.7 | 14.9 | 4.1 | 61.7 |  |  |  |
| Variant v26715, A_D270I_strat2, one-armed trastuzumab antibody | 1.1 | 0.6 | 15.2 | 3.8 | 57.9 |  |  |  |
| Variant v26720, A_D270S_strat2, one-armed trastuzumab antibody | 0.9 | 0.5 | 12.7 | 3.9 | 49.5 |  |  |  |
| Variant v26721, A_D270Q_strat2, one-armed trastuzumab antibody | 1.1 | 0.6 | 14.6 | 3.6 | 51.7 |  |  |  |

Further lines, results first:

| IIb Selectivity Improvement wrt Control [1] [fold] | IIb-Fold wrt Control [2] [fold] | IIb Selectivity [3] [fold] | IIaR-fold [4] [fold] | IIb-Fold [5] [fold] | IIb/IIaR Selectivity (IIb-Fold/IIaR-Fold) (FcγRIIb [6]) | IIaR-Fold (fold change in affinity over wild-type) (fold over wild-type) (FcγRIIaR) | IIb-Fold (fold change in affinity over wild-type) (fold over wild-type) (FcγRIIb [7]) | Substance |
| --- | --- | --- | --- | --- | --- | --- | --- | --- |
| 1 | 0.6 | 12.9 | 4.3 | 55.7 |  |  |  | Variant v26743, A_P271K_strat2, one-armed trastuzumab antibody |
|  |  |  |  |  | 3.6 | 1.9 | 6.9 | Variant 19523 (chain A: G236D / chain B: G236N_S239D_H268D), one-armed trastuzumab antibody, Scaffold 2 |
| 1.1 | 1.2 |  | 7.3 | 109 |  |  |  | Variant v26723, A_D270E_strat2, one-armed trastuzumab antibody |
| 0.9 | 0.6 | 11.7 | 5.1 | 59.3 |  |  |  | Variant v26741, A_P271E_strat2, one-armed trastuzumab antibody |
| 1.1 | 0.9 | 15.2 | 5.3 | 81.3 |  |  |  | Variant v26748, A_E272L_strat2, one-armed trastuzumab antibody |
| 1 | 0.7 | 13.5 | 4.9 | 66.6 |  |  |  | Variant v26757, A_E272D_strat2, one-armed trastuzumab antibody |
| 1 | 0.7 | 13.2 | 4.9 | 64.2 |  |  |  | Variant v26719, A_D270T_strat2, one-armed trastuzumab antibody |
| 1.3 | 0.7 | 16.7 | 4 | 67.4 |  |  |  | Variant v26722, A_D270N_strat2, one-armed trastuzumab antibody |
| 1.1 | 0.6 |  | 3.6 | 54.4 |  |  |  | Variant v26730, A_P271V_strat2, one-armed trastuzumab antibody |
| 0.9 | 0.6 | 12.3 | 4.3 | 52.5 |  |  |  | Variant v26734, A_P271W_strat2, one-armed trastuzumab antibody |
| 1.1 | 0.7 | 14.7 | 4.3 | 62.8 |  |  |  | Variant v26753, A_E272T_strat2, one-armed trastuzumab antibody |
